Common to all, as to assay: Flag co-IP, 293 cells, MudPIT MS
In one assay the target is endogenous p97 (human) (UniProt P55072).
The target in the next assay is T1, VCIP135 (human) (UniProt Q96JH7).
T1 sequence (looked up): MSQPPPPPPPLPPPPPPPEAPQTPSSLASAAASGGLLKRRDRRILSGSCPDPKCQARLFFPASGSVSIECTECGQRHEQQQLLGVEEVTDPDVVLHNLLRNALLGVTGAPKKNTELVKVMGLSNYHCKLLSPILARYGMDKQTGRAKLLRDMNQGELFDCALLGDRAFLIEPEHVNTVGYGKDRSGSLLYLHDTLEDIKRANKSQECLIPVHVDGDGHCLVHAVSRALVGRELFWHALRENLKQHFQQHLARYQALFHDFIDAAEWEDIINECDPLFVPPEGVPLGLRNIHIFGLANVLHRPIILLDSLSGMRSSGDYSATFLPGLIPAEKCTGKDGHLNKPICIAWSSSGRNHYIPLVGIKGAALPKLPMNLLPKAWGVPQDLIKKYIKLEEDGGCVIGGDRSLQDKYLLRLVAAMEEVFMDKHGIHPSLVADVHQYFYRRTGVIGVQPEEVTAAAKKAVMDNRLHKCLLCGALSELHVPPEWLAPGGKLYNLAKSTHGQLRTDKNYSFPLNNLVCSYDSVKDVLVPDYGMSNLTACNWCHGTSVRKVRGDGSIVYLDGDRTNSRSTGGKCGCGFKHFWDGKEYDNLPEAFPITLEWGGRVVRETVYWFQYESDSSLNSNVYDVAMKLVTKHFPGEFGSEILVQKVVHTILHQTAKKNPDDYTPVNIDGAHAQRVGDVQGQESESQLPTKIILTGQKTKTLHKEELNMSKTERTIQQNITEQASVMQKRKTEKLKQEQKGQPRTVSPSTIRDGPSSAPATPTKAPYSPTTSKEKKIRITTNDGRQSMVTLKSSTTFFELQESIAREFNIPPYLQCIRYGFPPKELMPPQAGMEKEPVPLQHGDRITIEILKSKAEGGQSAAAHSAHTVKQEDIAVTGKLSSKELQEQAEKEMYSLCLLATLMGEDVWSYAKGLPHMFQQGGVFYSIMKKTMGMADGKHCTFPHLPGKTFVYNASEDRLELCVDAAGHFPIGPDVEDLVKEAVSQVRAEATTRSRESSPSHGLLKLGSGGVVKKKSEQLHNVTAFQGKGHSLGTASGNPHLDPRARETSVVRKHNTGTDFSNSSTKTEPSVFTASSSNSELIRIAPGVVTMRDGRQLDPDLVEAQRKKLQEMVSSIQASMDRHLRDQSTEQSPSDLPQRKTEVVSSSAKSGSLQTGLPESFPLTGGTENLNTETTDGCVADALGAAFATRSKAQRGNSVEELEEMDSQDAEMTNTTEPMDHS

In a further assay the target is T2, endogenous UFD1 (human) (UniProt Q92890).
T2 sequence (looked up): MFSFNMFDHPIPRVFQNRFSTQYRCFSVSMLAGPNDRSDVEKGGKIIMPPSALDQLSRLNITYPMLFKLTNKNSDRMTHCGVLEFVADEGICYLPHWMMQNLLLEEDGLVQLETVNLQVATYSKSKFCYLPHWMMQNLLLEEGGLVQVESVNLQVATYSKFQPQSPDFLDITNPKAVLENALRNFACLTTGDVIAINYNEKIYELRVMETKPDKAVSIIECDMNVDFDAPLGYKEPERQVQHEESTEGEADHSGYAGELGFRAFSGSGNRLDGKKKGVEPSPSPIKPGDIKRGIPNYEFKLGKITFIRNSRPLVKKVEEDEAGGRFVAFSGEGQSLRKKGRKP

endogenous p97 (human), sequence (P55072 2-806 limits assumed): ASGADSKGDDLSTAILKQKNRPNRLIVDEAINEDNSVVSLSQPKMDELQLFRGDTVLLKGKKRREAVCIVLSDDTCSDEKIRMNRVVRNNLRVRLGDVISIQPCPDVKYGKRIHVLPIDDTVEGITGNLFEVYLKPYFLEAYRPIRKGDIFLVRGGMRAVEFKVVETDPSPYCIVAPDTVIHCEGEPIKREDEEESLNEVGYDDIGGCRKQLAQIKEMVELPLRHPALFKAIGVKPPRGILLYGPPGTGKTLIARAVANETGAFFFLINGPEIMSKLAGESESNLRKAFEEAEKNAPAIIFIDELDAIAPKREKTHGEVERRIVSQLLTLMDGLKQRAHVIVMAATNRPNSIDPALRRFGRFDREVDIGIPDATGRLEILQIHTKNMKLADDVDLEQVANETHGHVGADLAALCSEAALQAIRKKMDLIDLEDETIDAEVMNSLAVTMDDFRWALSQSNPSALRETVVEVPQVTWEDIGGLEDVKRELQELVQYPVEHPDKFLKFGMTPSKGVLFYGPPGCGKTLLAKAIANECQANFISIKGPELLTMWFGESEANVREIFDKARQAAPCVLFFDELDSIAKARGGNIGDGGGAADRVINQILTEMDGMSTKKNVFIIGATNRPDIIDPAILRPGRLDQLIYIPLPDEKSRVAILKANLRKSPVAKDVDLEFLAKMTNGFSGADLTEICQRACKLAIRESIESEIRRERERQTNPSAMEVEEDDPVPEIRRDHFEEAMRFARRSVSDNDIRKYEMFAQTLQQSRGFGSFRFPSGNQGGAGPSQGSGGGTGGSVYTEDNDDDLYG

B1: Flag-NPL4 (protein, UniProt Q8TAT6 2-608, looked up, species assumed)
Nuclear protein localization protein 4 homolog: AESIIIRVQSPDGVKRITATKRETAATFLKKVAKEFGFQNNGFSVYINRNKTGEITASSNKSLNLLKIKHGDLLFLFPSSLAGPSSEMETSVPPGFKVFGAPNVVEDEIDQYLSKQDGKIYRSRDPQLCRHGPLGKCVHCVPLEPFDEDYLNHLEPPVKHMSFHAYIRKLTGGADKGKFVALENISCKIKSGCEGHLPWPNGICTKCQPSAITLNRQKYRHVDNIMFENHTVADRFLDFWRKTGNQHFGYLYGRYTEHKDIPLGIRAEVAAIYEPPQIGTQNSLELLEDPKAEVVDEIAAKLGLRKVGWIFTDLVSEDTRKGTVRYSRNKDTYFLSSEECITAGDFQNKHPNMCRLSPDGHFGSKFVTAVATGGPDNQVHFEGYQVSNQCMALVRDECLLPCKDAPELGYAKESSSEQYVPDVFYKDVDKFGNEITQLARPLPVEYLIIDITTTFPKDPVYTFSISQNPFPIENRDVLGETQDFHSLATYLSQNTSSVFLDTISDFHLLLFLVTNEVMPLQDSISLLLEAVRTRNEELAQTWKRSEQWATIEQLCSTVGGQLPGLHEYGAVGGSTHTATAAMWACQHCTFMNQPGTGHCEMCSLPRT
modifications: N-terminal Flag tag
In the assay with endogenous p97 (human), B1 came in with a sequence count of 79, a sequence coverage of 70.4% and a spectrum count of 414. In the assay with VCIP135 (human), the sequence count was determined as 2, the sequence coverage was determined as 2.5% and the spectrum count is 2. In addition, in the assay with endogenous UFD1 (human), the sequence count was found to be 14, the sequence coverage came to 37.9% and the spectrum count was 22.
